According to PMC6738647, “A nanobody targeting the translocated intimin receptor inhibits the attachment of enterohemorrhagic E. coli to human colonic mucosa” (PLoS Pathogens, 2019):

T1: Int280 of EHEC (C-terminal receptor-binding domain of intimin), His-tagged (enterohemorrhagic E. coli (EHEC) O157:H7, UniProt P43261 655-934)
T1 construct: also called Int280_(EHEC)
T1 sequence: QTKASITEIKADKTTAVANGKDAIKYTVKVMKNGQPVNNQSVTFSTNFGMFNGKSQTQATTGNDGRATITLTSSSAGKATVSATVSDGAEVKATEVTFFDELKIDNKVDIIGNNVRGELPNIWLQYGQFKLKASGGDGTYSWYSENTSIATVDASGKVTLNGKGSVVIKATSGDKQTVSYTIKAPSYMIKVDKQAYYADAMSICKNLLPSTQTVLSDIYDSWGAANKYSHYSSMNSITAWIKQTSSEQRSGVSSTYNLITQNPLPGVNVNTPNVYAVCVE

T2: Tir TirM (Escherichia coli, UniProt P0DJ92)
T2 chain: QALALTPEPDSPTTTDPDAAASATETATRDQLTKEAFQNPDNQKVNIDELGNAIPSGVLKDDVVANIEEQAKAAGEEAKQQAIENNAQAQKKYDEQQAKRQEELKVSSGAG


How the values were obtained:
[1] = target: T1, Int280 of EHEC (C-terminal …); experiment: SPR; BiaCore3000; biotinylated TirM_(EHEC) immobilised on a Streptavidin SA chip at 150 RU; Int280 as analyte at 30 ul/min in HEPES-buffer; 1:1 Langmuir model; KD from koff/kon; settings: both partners purified
Tir TirM = target: T2, Tir TirM; experiment: SPR

Binder	Kd [1] [nM]	koff [1] [s⁻¹]	kon [1] [M⁻¹ s⁻¹]	Kd (Tir TirM) [nM]
Biotinylated TirM of EHEC, His-tagged (domain or fragment, biotin (Biotinamidocaproate N-hydroxysuccinimide ester), also called biotinylated TirM_(EHEC)) QALALTPEPDSPTTTDPDAAASATETATRDQLTKEAFQNPDNQKVNIDELGNAIPSGVLKDDVVANIEEQAKAAGEEAKQQAIENNAQAQKKYDEQQAKRQEELKVSSGAG	48.1	0.0375	785000	
Intimin Int280 Int280 (protein) QTKASITEIKADKTTAVANGKDAIKYTVKVMKNGQPVNNQSVTFSTNFGMFNGKSQTQATTGNDGRATITLTSSSAGKATVSATVSDGAEVKATEVTFFDELKIDNKVDIIGNNVRGELPNIWLQYGQFKLKASGGDGTYSWYSENTSIATVDASGKVTLNGKGSVVIKATSGDKQTVSYTIKAPSYMIKVDKQAYYADAMSICKNLLPSTQTVLSDIYDSWGAANKYSHYSSMNSITAWIKQTSSEQRSGVSSTYNLITQNPLPGVNVNTPNVYAVCVE				~40
